Patent publication US20200024322A1 (Eli Lilly, published 2020)
Where a chain is given by its changes, count along the chain named. Numbered stars: 1 amine (or outer) side, 2 acyl side, 3 side chain; on linkers, the order of the positions; unused ones are H or OH. Square brackets hold non-standard residues; d marks the D form. Side chains are listed from the residue outwards. Ends that are not written are not given here. * marks the point of attachment. C18 diacid = O=C(O)CCCCCCCCCCCCCCCCC(=O)*; γGlu = O=C(O)[C@H](CCC(=O)[*:2])N[*:1]; AEEA = NCCOCCOCC(=O)O; Aib = CC(C)(N)C(=O)O

B1: Example 213 (peptide)
peptide: YXEGTXTSDYSIXLDEKAQXEFIXYLIEGGPSSGAPPPS
modifications: Aib2; αMeF6; αMeL13; K17((2-[2-(2-Amino-ethoxy)-ethoxy]-acetyl)2-(γ-Glu)-CO-(CH2)16-CO2H); Aib20; D-Glu24; C-terminal NH2
B2: Example 231 (peptide)
peptide: B1 peptide with E16K
modifications: Aib2; αMeF(2F)6; αMeL13; K17((2-[2-(2-Amino-ethoxy)-ethoxy]-acetyl)2-(γ-Glu)-CO-(CH2)16-CO2H); Aib20; D-Glu24; C-terminal NH2
B3: Example 212 (peptide)
peptide: B1 peptide with E16K
modifications: Aib2; αMeF(2F)6; αMeL13; K17((2-[2-(2-Amino-ethoxy)-ethoxy]-acetyl)2-(γ-Glu)-CO-(CH2)18-CO2H); Aib20; D-Glu24; C-terminal NH2
B4: Example 230 (peptide)
peptide: B1 peptide with E16H
modifications: Aib2; αMeF(2F)6; αMeL13; K17((2-[2-(2-Amino-ethoxy)-ethoxy]-acetyl)2-(γ-Glu)-CO-(CH2)18-CO2H); Aib20; D-Glu24; C-terminal NH2
B5: Example 315 (peptide)
peptide: YXEGTFTSDYSILLDKKAQXAFIEYLIEGGPSSGAPPPS
modifications: Aib2; K17((2-[2-(2-Amino-ethoxy)-ethoxy]-acetyl)2-(γ-Glu)-CO-(CH2)16-CO2H); Aib20; C-terminal NH2
B6: Example 304 (peptide)
peptide: YXEGTFTSDYSIXLDKKAQXEFIEYLIEGGPSSG
modifications: Aib2; αMeL13; K17((2-[2-(2-Amino-ethoxy)-ethoxy]-acetyl)2-(γ-Glu)-CO-(CH2)16-CO2H); Aib20; C-terminal NH2
B7: Example 306 (peptide)
peptide: B6 peptide with E28A
modifications: Aib2; αMeL13; K17((2-[2-(2-Amino-ethoxy)-ethoxy]-acetyl)2-(γ-Glu)-CO-(CH2)16-CO2H); Aib20; C-terminal NH2
B8: Example 295 (peptide)
peptide: Y[Aib]EGTFTSDYSILLDKK([AEEA-AEEA-γGlu-C18 diacid])AQHAFIEYLIEGG-NH2
modifications: N-terminus assumed
SMILES: CC[C@H](C)[C@H](NC(=O)[C@H](CC(C)C)NC(=O)[C@H](Cc1ccc(O)cc1)NC(=O)[C@H](CCC(=O)O)NC(=O)[C@@H](NC(=O)[C@H](Cc1ccccc1)NC(=O)[C@H](C)NC(=O)[C@H](Cc1c[nH]cn1)NC(=O)[C@H](CCC(N)=O)NC(=O)[C@H](C)NC(=O)[C@H](CCCCNC(=O)COCCOCCNC(=O)COCCOCCNC(=O)CC[C@H](NC(=O)CCCCCCCCCCCCCCCCC(=O)O)C(=O)O)NC(=O)[C@H](CCCCN)NC(=O)[C@H](CC(=O)O)NC(=O)[C@H](CC(C)C)NC(=O)[C@H](CC(C)C)NC(=O)[C@@H](NC(=O)[C@H](CO)NC(=O)[C@H](Cc1ccc(O)cc1)NC(=O)[C@H](CC(=O)O)NC(=O)[C@H](CO)NC(=O)[C@@H](NC(=O)[C@H](Cc1ccccc1)NC(=O)[C@@H](NC(=O)CNC(=O)[C@H](CCC(=O)O)NC(=O)C(C)(C)NC(=O)[C@@H](N)Cc1ccc(O)cc1)[C@@H](C)O)[C@@H](C)O)[C@@H](C)CC)[C@@H](C)CC)C(=O)N[C@@H](CCC(=O)O)C(=O)NCC(=O)NCC(N)=O
B9: Example 343 (peptide)
peptide: B1 peptide with X6F, E21A, E28A
modifications: Aib2; αMeL13; K17((2-[2-(2-Amino-ethoxy)-ethoxy]-acetyl)2-(γ-Glu)-CO-(CH2)18-CO2H); Aib20; D-Glu24; C-terminal NH2
B10: Example 331 (peptide)
peptide: B1 peptide with X6F, X24E, E28A
modifications: Aib2; αMeL13; K17((2-[2-(2-Amino-ethoxy)-ethoxy]-acetyl)2-(γ-Glu)-CO-(CH2)18-CO2H); Aib20; C-terminal NH2
B11: Example 328 (peptide)
peptide: B5 peptide with Y1F, L13X, G29A
modifications: Aib2; αMeL13; K17((2-[2-(2-Amino-ethoxy)-ethoxy]-acetyl)2-(γ-Glu)-CO-(CH2)16-CO2H); Aib20; C-terminal NH2
B12: Example 338 (peptide)
peptide: B5 peptide with Y1F, L13X, A21E, E28A
modifications: Aib2; αMeL13; K17((2-[2-(2-Amino-ethoxy)-ethoxy]-acetyl)2-(γ-Glu)-CO-(CH2)18-CO2H); Aib20; C-terminal NH2
B13: Example 342 (peptide)
peptide: B1 peptide with Y1X, X6F, X24E, E28A
modifications: D-Tyr1; Aib2; αMeL13; K17((2-[2-(2-Amino-ethoxy)-ethoxy]-acetyl)2-(γ-Glu)-CO-(CH2)18-CO2H); Aib20; C-terminal NH2

What follows are binders tested against T1, human glucagon receptor (human, UniProt P47871 26-477) (assay: [125I]-Gcg competition SPA, hGcgR membranes).
T1 construct: whole, on cells; also called hGcgR; GcgR
T1 sequence (P47871 26-477): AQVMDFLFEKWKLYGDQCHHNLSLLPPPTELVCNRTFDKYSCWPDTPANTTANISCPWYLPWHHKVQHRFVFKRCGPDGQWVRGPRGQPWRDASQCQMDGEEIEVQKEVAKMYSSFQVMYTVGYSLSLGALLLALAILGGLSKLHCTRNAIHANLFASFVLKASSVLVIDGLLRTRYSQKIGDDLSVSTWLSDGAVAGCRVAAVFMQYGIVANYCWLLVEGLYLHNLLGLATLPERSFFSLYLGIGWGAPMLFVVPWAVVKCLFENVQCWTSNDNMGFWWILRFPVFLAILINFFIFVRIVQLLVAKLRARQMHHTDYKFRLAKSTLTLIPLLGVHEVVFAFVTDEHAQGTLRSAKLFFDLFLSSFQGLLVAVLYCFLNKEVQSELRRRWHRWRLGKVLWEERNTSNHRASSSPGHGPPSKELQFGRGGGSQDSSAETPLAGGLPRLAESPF

Binder | Ki
B1 | 544 nM
B2 | 440 nM
B3 | 205 nM
B4 | 494 nM
B5 | 539 nM

What follows are binders tested against T2, human GLP-1 receptor (human, UniProt P43220 24-463) (assay: [125I]-GLP-1 competition SPA, hGLP-1R membranes).
T2 construct: whole, on cells; also called hGLP-1R; hGLP1R
Description: The binding buffer contains 25 mM HEPES, pH 7.4, 2.5 mM CaCl₂, 1 mM MgCl₂, 0.1% (w/v) bacitracin, 0.003% (w/v) TWEEN®-20, and Roche Complete™ Protease Inhibitors without EDTA.
(§1) Data are analyzed using four-parameter (curve maximum, curve minimum, IC₅₀, Hill slope) nonlinear regression routines (Genedata Screener, version 12.0.4, Genedata AG, Basal, Switzerland). […] Values for Kᵢ are reported as the geometric mean, with error expressed as the standard error of the mean (SEM) and n is equal to the number of independent replicates (determined in assays performed on different days). Geometric Means are calculated as follows: […]

Binder | Ki
B6 | 4.44 nM
B7 | 2.86 nM
B8 | 4.12 nM
B1 | 2.75 nM
B9 | 13.3 nM
B10 | 11.4 nM
B2 | 3.03 nM
B11 | 3.98 nM
B12 | 3.23 nM
B13 | 15.4 nM
B3 | 2.76 nM
B4 | 4.68 nM

What follows are binders tested against T3, human GIP receptor (human, UniProt P48546 22-466) (assay: [125I]-GIP competition SPA, hGIPR membranes).
T3 construct: whole, on cells; also called hGIPR; hGIP-R
T3 sequence (looked up): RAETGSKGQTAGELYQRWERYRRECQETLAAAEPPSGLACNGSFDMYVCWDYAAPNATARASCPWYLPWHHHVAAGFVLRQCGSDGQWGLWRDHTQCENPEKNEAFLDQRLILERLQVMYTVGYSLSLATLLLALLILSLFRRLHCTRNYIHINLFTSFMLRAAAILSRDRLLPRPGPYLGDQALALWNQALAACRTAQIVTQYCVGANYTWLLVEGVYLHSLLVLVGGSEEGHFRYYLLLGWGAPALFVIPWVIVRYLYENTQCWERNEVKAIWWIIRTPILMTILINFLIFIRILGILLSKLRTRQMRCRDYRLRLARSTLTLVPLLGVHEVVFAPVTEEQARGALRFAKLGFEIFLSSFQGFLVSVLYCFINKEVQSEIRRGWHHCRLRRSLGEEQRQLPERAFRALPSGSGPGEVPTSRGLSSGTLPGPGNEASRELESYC
Description: The binding buffer contains 25 mM HEPES, pH 7.4, 2.5 mM CaCl₂, 1 mM MgCl₂, 0.1% (w/v) bacitracin, 0.003% (w/v) TWEEN®-20, and Roche Complete™ Protease Inhibitors without EDTA. […] Plates are sealed and mixed on a plate shaker (setting 6) for 1 minute and read with a PerkinElmer Trilux MicroBeta® scintillation counter after 2.5 to 12 hours of incubation/settling time at room temperature.
as §1

Binder | Ki
B6 | 0.0499 nM
B7 | 0.0349 nM
B8 | 0.181 nM
B1 | 0.365 nM
B9 | 0.0374 nM
B10 | 0.0851 nM
B2 | 0.0394 nM
B11 | 0.136 nM
B12 | 0.0831 nM
B13 | 0.129 nM
B3 | 0.0978 nM
B4 | 0.042 nM
B5 | 0.0677 nM
